Experimental data reported in patent US5414076.
Where “and” joins values, the source holds several entries; their conditions need not be identical. Equal values may be shown once.

Target: human GALV receptor protein (gibbon ape leukemia virus receptor) (human)

With gibbon ape leukemia virus the Foci/3 × 10^4 Cells (PG4 indicator cells) after exposure to GALV (foci/3 × 10^4 cells) was 382 and 1000.
